This note sets out measurements from the supplement of paper PMC5998384.

Series [1] relates to HeLa Kyoto. Put plainly: solubility in G1/S (NP-40 vs SDS abundance) (log2 ratio); higher = more soluble. Particulars: cell cycle stage: G1/S.
Series [2] deals with HeLa Kyoto. Put plainly: melting temperature (median over replicates), in situ; higher = more thermally stable.
Series [3] has as its system HeLa Kyoto. Put plainly: solubility change mitosis vs G1/S (difference of NP-40 vs SDS log2 ratios) (log2 ratio difference); higher = more soluble in mitosis.
The subject of series [4] is HeLa Kyoto. Put plainly: thermal stability score vs G1/S (z-score of summed log2 fold changes over temperatures); higher = more thermally stable than in G1/S.
[5] abbreviates: cell cycle stage: early G1 (4.5 h after nocodazole release).
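Throughout, for melting temperature (median over replicates), in situ: HeLa Kyoto cells synchronized by double thymidine or nocodazole block, proteins quantified by TMT10plex mass spectrometry, three independent biological replicates.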
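Throughout, for solubility change mitosis vs G1/S (difference of NP-40 vs SDS log2 ratios): synchronized HeLa Kyoto cells (double thymidine block for G1/S, nocodazole release for mitosis), protein amounts in NP-40 versus SDS lysates quantified by mass spectrometry, three biological replicates.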
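Throughout, for solubility in G1/S (NP-40 vs SDS abundance): HeLa Kyoto cells arrested at G1/S by double thymidine block, proteins quantified by TMT10plex mass spectrometry in mild NP-40 versus SDS extracts, three biological replicates.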
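Throughout, for thermal stability score vs G1/S (z-score of summed log2 fold changes over temperatures): synchronized HeLa Kyoto cells, proteins quantified by TMT10plex mass spectrometry, three biological replicates, mitosis taken 0.5 h after nocodazole release, G1/S directly after double thymidine block.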

For the sequence “MSENLDNEGPKPMESCGQESSSALSCPTVSVPPAAPAALEEVEKEGAGAATGPGPQPGLYSYIRDDLFTSEIFKLELQNVPRHASFSDVRRFLGRFGLQPHKTKLFGQPPCAFVTFRSAAERDKALRVLHGALWKGRPLSVRLARPKADPMARRRRQEGESEPPVTRVADVVTPLWTVPYAEQLERKQLECEQVLQKLAKEIGSTNRALLPWLLEQRHKHNKACCPLEGVRPSPQQTEYRNKCEFLVGVGVDGEDNTVGCRLGKYKGGTCAVAAPFDTVHIPEATKQVVKAFQEFIRSTPYSAYDPETYTGHWKQLTVRTSRRHQAMAIAYFHPQKLSPEELAELKTSLAQHFTAGPGRASGVTCLYFVEEGQRKTPSQEGLPLEHVAGDRCIHEDLLGLTFRISPHAFFQVNTPAAEVLYTVIQDWAQLDAGSMVLDVCCGTGTIGLALARKVKRVIGVELCPEAVEDARVNAQDNELSNVEFHCGRAEDLVPTLVSRLASQHLVAILDPPRAGLHSKVILAIRRAKNLRRLLYVSCNPRAAMGNFVDLCRAPSNRVKGIPFRPVKAVAVDLFPQTPHCEMLILFERVEHPNGTGVLGPHSPPAQPTPGPPDNTLQETGTFPSS [TRMT2A]”, the “solubility in G1/S (log2)” value in series [1] is -0.136. The melting temperature in series [2] (cell cycle stage: G1/S) was determined as 48.9 °C; in series [2] (cell cycle stage: mitosis) it was 49.8 °C. Moreover, in series [3], the “solubility change mitosis (log2)” value came to 0.169. Moreover, the thermal stability score in series [4] (setting [5]) was found to be 2.34; in series [4] (cell cycle stage: mitosis) it was 3.51.

As to “MSENSSDSDSSCGWTVISHEGSDIEMLNSVTPTDSCEPAPECSSLEQEELQALQIEQGESSQNGTVLMEETAYPALEETSSTIEAEEQKIPEDSIYIGTASDDSDIVTLEPPKLEEIGNQEVVIVEEAQSSEDFNMGSSSSSQYTFCQPETVFSSQPSDDESSSDETSNQPSPAFRRRRARKKTVSASESEDRLVAEQETEPSKELSKRQFSSGLNKCVILALVIAISMGFGHFYGTIQIQKRQQLVRKIHEDELNDMKDYLSQCQQEQESFIDYKSLKENLARCWTLTEAEKMSFETQKTNLATENQYLRVSLEKEEKALSSLQEELNKLREQIRILEDKGTSTELVKENQKLKQHLEEEKQKKHSFLSQRETLLTEAKMLKRELERERLVTTALRGELQQLSGSQLHGKSDSPNVYTEKKEIAILRERLTELERKLTFEQQRSDLWERLYVEAKDQNGKQGTDGKKKGGRGSHRAKNKSKETFLGSVKETFDAMKNSTKEFVRHHKEKIKQAKEAVKENLKKFSDSVKSTFRHFKDTTKNIFDEKGNKRFGATKEAAEKPRTVFSDYLHPQYKAPTENHHNRGPTMQNDGRKEKPVHFKEFRKNTNSKKCSPGHDCRENSHSFRKACSGVFDCAQQESMSLFNTVVNPIRMDEFRQIIQRYMLKELDTFCHWNELDQFINKFFLNGVFIHDQKLFTDFVNDVKDYLRNMKEYEVDNDGVFEKLDEYIYRHFFGHTFSPPYGPRSVYIKPCHYSSL [CCPG1]”, the “solubility in G1/S (log2)” value in series [1] was -0.321. Also, the melting temperature in series [2] (cell cycle stage: G1/S) and in series [2] (cell cycle stage: mitosis) was 53.6 °C in each case. Also, in series [3], the “solubility change mitosis (log2)” value is -0.0492. Moreover, the thermal stability score in series [4] (setting [5]) is 1.39; in series [4] (cell cycle stage: mitosis), 2.71.

Turning to “MSESSSKSSQPLASKQEKDGTEKRGRGRPRKQPPVSPGTALVGSQKEPSEVPTPKRPRGRPKGSKNKGAAKTRKTTTTPGRKPRGRPKKLEKEEEEGISQESSEEEQ [HMGA1]”, the “solubility in G1/S (log2)” value in series [1] came out at 0.583. Moreover, the melting temperature in series [2] (cell cycle stage: mitosis) was 57.6 °C. Further, the “solubility change mitosis (log2)” value in series [3] worked out at 1.62. Moreover, the thermal stability score in series [4] (setting [5]) was -6.52; in series [4] (cell cycle stage: mitosis) it was -8.11.

With “MSEVKSRKKSGPKGAPAAEPGKRSEGGKTPVARSSGGGGWADPRTCLSLLSLGTCLGLAWFVFQQSEKFAKVENQYQLLKLETNEFQQLQSKISLISEKWQKSEAIMEQLKSFQIIAHLKRLQEEINEVKTWSNRITEKQDILNNSLTTLSQDITKVDQSTTSMAKDVGLKITSVKTDIRRISGLVTDVISLTDSVQELENKIEKVEKNTVKNIGDLLSSSIDRTATLRKTASENSQRINSVKKTLTELKSDFDKHTDRFLSLEGDRAKVLKTVTFANDLKPKVYNLKKDFSRLEPLVNDLTLRIGRLVTDLLQREKEIAFLSEKISNLTIVQAEIKDIKDEIAHISDMN [IKBIP]”, the “solubility in G1/S (log2)” value in series [1] was 0.751. The melting temperature in series [2] (cell cycle stage: G1/S) was found to be 54.1 °C; in series [2] (cell cycle stage: mitosis), 55.2 °C. Moreover, the “solubility change mitosis (log2)” value in series [3] worked out at 0.165. In addition, the thermal stability score came to 2.64 in series [4] (setting [5]) and 4.37 in series [4] (cell cycle stage: mitosis).

Consider “MSEWMKKGPLEWQDYIYKEVRVTASEKNEYKGWVLTTDPVSANIVLVNFLEDGSMSVTGIMGHAVQTVETMNEGDHRVREKLMHLFTSGDCKAYSPEDLEERKNSLKKWLEKNHIPITEQGDAPRTLCVAGVLTIDPPYGPENCSSSNEIILSRVQDLIEGHLTASQ [GEMIN6]”, for which the “solubility in G1/S (log2)” value in series [1] came to 0.271. For the same sequence, the melting temperature in series [2] (cell cycle stage: G1/S) worked out at 53.6 °C; in series [2] (cell cycle stage: mitosis), 52.3 °C. Further, the “solubility change mitosis (log2)” value in series [3] came to 0.0835. For the same sequence, the results for the thermal stability score in series [4] (setting [5]) and in series [4] (cell cycle stage: mitosis) were -0.4 and -2.06, respectively.

For the sequence “MSFIPVAEDSDFPIHNLPYGVFSTRGDPRPRIGVAIGDQILDLSIIKHLFTGPVLSKHQDVFNQPTLNSFMGLGQAAWKEARVFLQNLLSVSQARLRDDTELRKCAFISQASATMHLPATIGDYTDFYSSRQHATNVGIMFRDKENALMPNWLHLPVGYHGRASSVVVSGTPIRRPMGQMKPDDSKPPVYGACKLLDMELEMAFFVGPGNRLGEPIPISKAHEHIFGMVLMNDWSARDIQKWEYVPLGPFLGKSFGTTVSPWVVPMDALMPFAVPNPKQDPRPLPYLCHDEPYTFDINLSVNLKGEGMSQAATICKSNFKYMYWTMLQQLTHHSVNGCNLRPGDLLASGTISGPEPENFGSMLELSWKGTKPIDLGNGQTRKFLLDGDEVIITGYCQGDGYRIGFGQCAGKVLPALLPS [FAH]”, the “solubility in G1/S (log2)” value in series [1] was determined as 0.207. Moreover, the melting temperature stood at 58.7 °C in series [2] (cell cycle stage: G1/S) and 59 °C in series [2] (cell cycle stage: mitosis). Besides, in series [3], the “solubility change mitosis (log2)” value is -0.0884. The values for the thermal stability score in series [4] (setting [5]) and in series [4] (cell cycle stage: mitosis) were -0.791 and -0.764, respectively.
